Experimental data published in the supplement of paper PMC9170038.

Experiments:
[1] = system: MS2 coat protein; experiment: apparent KD of MS2 coat protein, switch OFF state (with FMN for OFF switches, without FMN for ON switches); designed switch direction (-1 OFF switch, 1 ON switch): -1; higher = weaker reporter binding; details: FMN input: 0 or 200 uM; Eterna round: R93 (includes R88 designs)
Method in brief: (§1)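 Designed RNA switches, transcribed on-chip from Illumina sequencing clusters, were titrated with SNAP-549-labelled MS2 coat protein from 0.7 or 1.5 nM to 3 µM in twofold steps. The solution was 100 mM Tris-HCl pH 7.5, 80 mM KCl, 4 mM MgCl2, with constant ligand or without it. Apparent KD is the median over each design's normalised cluster binding-curve fits.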

[2] = system: MS2 coat protein; experiment: apparent KD of MS2 coat protein, switch ON state; designed switch direction (-1 OFF switch, 1 ON switch): -1; higher = weaker reporter binding; details: FMN input: 0 or 200 uM; Eterna round: R93 (includes R88 designs)
Method in brief: as §1

[3] = system: MS2 coat protein; experiment: apparent KD of MS2 coat protein; designed switch direction (-1 OFF switch, 1 ON switch): 1; higher = weaker reporter binding
Method in brief: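 On Illumina chips, designed RNA switches with common flanks were made by stalled E. coli RNA polymerase. Titrations with SNAP-549-labelled MS2 coat protein, doubling from 0.7 or 1.5 nM to 3 µM, were done with no input, with 200 uM small-molecule ligand, or with an oligonucleotide input. Apparent KD is the median per design over clusters, from curve fits of normalised cluster fluorescence.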

[4] = Eterna round: R95, input ligand: microRNA oligo, concentration not stated
[5] = input ligand: microRNA oligo, concentration not stated
[6] = Eterna round: R95, input ligand: FMN 200 uM
[7] = Eterna round: R95, input ligand: none

| Sequence | apparent KD of MS2 coat protein [1] | apparent KD of MS2 coat protein [2] | apparent KD of MS2 coat protein [3, 5] | also measured |
| --- | --- | --- | --- | --- |
| AAAAGCUUAGGAUAUACACAAAAUAAAGGAGUGAUAUCAGAACAUGAGGAUCACCCAUGUAGAAGGAAGAAAUA [Ceerle] | 58 nM | 65.3 nM |  |  |
| AGCUAGAGAGGAUAUACGUGAGUGAUAAAAGUCUGAUAACUACAUGAGGAUCACCCAUGUAGAAGGCUCUAGCA [Ex2 Design 166: Sub-opt 30] | 22.2 nM | 69.1 nM |  |  |
| AAAACGGCAGGAUAUACAGAUGAGAACUAGACCGAAAAAAAACAUGAGGAUCACCCAUGUAGAAGGGCCAAAAA [Ex2 Malc#7] | 36.8 nM | 27.8 nM |  |  |
| AACAGGUUAGGAUAUAUCCAACAAAUAAAAAAAAUAUAAGGAUAGAAGGAACAUGAGGAUCACCCAUGUUAACA [May 30] | 17.1 nM | 20.8 nM |  |  |
| AGUGAGUCAGGAUAUGACUGAAGAAUAAAAGAAAUAACAAGUCAGAAGGGACAUGAGGAUCACCCAUGUACACA [May 59] | 20.7 nM | 30.9 nM |  |  |
| UAAAAGUGAGGAUAUUCGGAUAGGAAAACGAAAACCUAUCCGAAGAAGGCACAUGAGGAUCACCCAUGUAAAAU [Mat - Exaclusion 4 - Eli mod - D37] | 48 nM | 33.1 nM |  |  |
| AAACACGGAGGAUAUACACCAUACAAACCUCUAAACAAAAAACAUGAGGAUCACCCAUGUAGAAGGCCGAACAA [Default title] | 28 nM | 24.7 nM |  |  |
| AUCUCGUCAGGAUAUGACUACAUAAAAAAAAAAAAAUGUAGUCAGAAGGGACAUGAGGAUCACCCAUGUACCAA [HSL_Exclusion 4 64% 3] | 22.8 nM | 21.9 nM |  |  |
| GGUUUGGUAGGAUAUACAUGAGGAUCACCCAUGUGAGAGAAAAAAGUGAGAAAGAAAAGUAGAAGGACCGGACG [salish99-ex3-123] | 102 nM | 39.9 nM |  |  |
| AAGAAAGGAGGAUAUACAUGAGGAUCACCCAUGUAAAAGAAAGAAAGGGAAAAGAAAAGUAGAAGGCCUAAGAA [Shoshenq IV] | 41.2 nM | 35.3 nM |  |  |
| AAGGGACAUGAGGAUCACCCAUGUUAGGAUAUCGGAAAAGGAAAAAAAAAAAAGAAGACGAGAAGGGACACCAA | 48.8 nM | 59.5 nM |  |  |
| GGAAAACAUGAGGAUCACCCAUGUGAGGAUAUCCAGGAUAUAGAAGGAGGAUAUAGAAGGAGAAGGCACGAAGG [salish99-ex1-18] | 33.1 nM | 28.6 nM |  |  |
| CAGUACUGAGGAUAUACAUGAGGAUCACCCAUGUGUAAAAGCUAGGAAACUAGCAAAUGUAGAAGGCAGUACUG [Ex3: 816] | 36.5 nM | 13.8 nM |  |  |
| AAGAAGGUAGGAUAUACAUGAGGAUCACCCAUGUAAAAGAAAGAAAGGGAAAAGAAAAGUAGAAGGACCAAGAA [Usermaatre Amenemope] | 27.4 nM | 23.5 nM |  |  |
| AAGAACCGAGGAUAUACAUGAGGAUCACCCAUGUAAAAGAAAGAAGGGAAAGAGAAAAGUAGAAGGCGGAAGAA [Usermaatre Shoshenq VI] | 34.3 nM | 36.1 nM |  |  |
| AACACACAUGAGGAUCACCCAUGUCAGGAUAUGCCGGGUUAGAGCCAACUGAAAAACCGUAGAAGGGACGAAAA [Bilbo Confounded 9 - Jieux - Exclusion 1] | 61.6 nM | 66.9 nM |  |  |
| AGUCAUACAGGAUAUACAUGAGGAUCACCCAUGUAUAUCCAAAAAAAAAAAUCCUCAUGUAGAAGGGUAUGACA [EX3 205: Super Stable 5] | 18.7 nM | 17.1 nM |  |  |
| AAAAAGCGAGGAUAUACAUGAGGAUCACCCAUGUCAAAAGAAUAUAAAGAAAUAGGAAGUAGAAGGCGCAAAAA [Ex 3 #3] | 56.4 nM | 67.1 nM |  |  |

| Sequence | apparent KD of MS2 coat protein [1] | apparent KD of MS2 coat protein [2] | apparent KD of MS2 coat protein [3, 5] | also measured |
| --- | --- | --- | --- | --- |
| AGUAGUACAGGAUAUACAUGAGGAUCACCCAUGUGAAAAAUAAGUGGCGUACCACAAAGUAGAAGGGUACUACA [Mat - Exclusion 3 - JL mod - D37] | 141 nM | 29.9 nM |  |  |
| AAGAACGCAGGAUAUACAUGAGGAUCACCCAUGUAAAAGAAAGAGGGAAAAGAGAAAAGUAGAAGGGCGAAGAA [Setepenre-meryamun Ptolemy I Soter] | 57.8 nM | 37 nM |  |  |
| AAAAAACAUGAGGAUCACCCAUGUGAGGAUAUACAGAAUGGAAUAAAAUAACAAGAAAGUAGAAGGCACAAAAA [Ex 1 May 38] | 41.6 nM | 36.2 nM |  |  |
| AGGUAACAUGAGGAUCACCCAUGUAAGGUGAACGUAGGAUAUCGAGGAGGUAGGGUAGGCCGAGAAGGACGAGGAG [JR_SS1_Sub093] (puzzle: Same State 1) |  |  |  | apparent KD of MS2 coat protein [3, 4]: 221 nM |
| UUCAACUGAGGAGGAUAUGCAGAGGAUCACCCUGUAGAAGGCCUCGAAAGGAGGAUAUGCAGAGGAUCACCCUGUAGAAGGCCU [pwkr ssNG DX.19] (Eterna round: R96, puzzle: Same State NG 1) |  |  | 148 nM | apparent KD of MS2 coat protein ([3]; input ligand: FMN 200 uM): 417 nM; apparent KD of MS2 coat protein ([3]; input ligand: none): 132 nM |
| AGCUAAAACGAAGGAUAUACAAACAUGAGGAUCACCCAUGUAUACAUGGUUUGUUGUGACUACAUGUAGAAGGUCGUACUAACA [SameState NG2 #17] (Eterna round: R96, puzzle: Same State NG 2) |  |  | 307 nM | apparent KD of MS2 coat protein ([3]; input ligand: FMN 200 uM): 388 nM; apparent KD of MS2 coat protein ([3]; input ligand: none): 500 nM |
| UUAAUUUACUGAGGAUAUCGUGUCGACUGAGUUGACAUGAGGAUCACCCAUGUGUGAAGUGGUAUCGAGAAGGCAGUUUUCUUA [JR_SSNG2_Sub026] (Eterna round: R96, puzzle: Same State NG 2) |  |  | 76.9 nM | apparent KD of MS2 coat protein ([3]; input ligand: FMN 200 uM): 19 nM; apparent KD of MS2 coat protein ([3]; input ligand: none): 122 nM |
| GUGGCCCAGGCACAGGAUAUGUUUCUCGUAACAUGAGGAUCACCCAUGUGCCUAUGAGAUUGUUUGCAGAAGGGUGCACGCCACG [JL Atiinbe mod 03] (puzzle: Same State 2) |  |  |  | apparent KD of MS2 coat protein [3, 6]: 21 nM; apparent KD of MS2 coat protein [3, 4]: 348 nM; apparent KD of MS2 coat protein [3, 7]: 541 nM |
| AGUCCUGAAAGGAAAAUUAUAAGUGAUGUACAUGAGGAUCACCCAUGUCAUGUACAAGUUCUAUGCUCGUCUUAUAA [Sensorship 25 - Jieux - Sensor for hsa-mir-208a] (puzzle: Sensor for hsa-mir-208a) |  |  |  | apparent KD of MS2 coat protein [3, 6]: 222 nM; apparent KD of MS2 coat protein [3, 4]: 34.1 nM; apparent KD of MS2 coat protein [3, 7]: 216 nM |
| ACAUGAGAUCGAGGAUAUUUUGUACCUACAUGUGACAUGAGGAUCACCCAUGUGGUAAGUAUGAGAAAGAAGGCGAAGAUAUGU [Equivalence 16 - Jieux - Same State NG 2] (Eterna round: R96, puzzle: Same State NG 2) |  |  | 29.3 nM |  |
| GCGGCGGCACGGCAGGAUAUGAUAAAACCUACAUGAGGAUCACCCAUGUCGGCGGGUUGCAAAAUUCAGAAGGGCCCUGUAGGCC [Leorzaonis] (puzzle: Same State 2) |  |  |  | apparent KD of MS2 coat protein [3, 6]: 16.6 nM; apparent KD of MS2 coat protein [3, 4]: 34.6 nM; apparent KD of MS2 coat protein [3, 7]: 38.6 nM |
| GGUCGAAACCACAUGAGGAUCACCCAUGUUCCGGAAACGGCGCAGGAUAUCUGUCCGAAAAGGUCAGAGAAGGGUGAAACGACC [Fiskers NG3ss - 79] (Eterna round: R96, puzzle: Same State NG 3) |  |  | 699 nM | apparent KD of MS2 coat protein ([3]; input ligand: FMN 200 uM): 546 nM; apparent KD of MS2 coat protein ([3]; input ligand: none): 944 nM |
| AACCAGGCCAGAGGAUAUGGGAAAGGAAGUGUACUAGAAGGCUGCAGCCUGAACAAACAUGAGGAUCACCCAUGUAAAACGGUG [PowerStrip SSNG 1.27] (Eterna round: R96, puzzle: Same State NG 1) |  |  | 150 nM | apparent KD of MS2 coat protein ([3]; input ligand: FMN 200 uM): 296 nM; apparent KD of MS2 coat protein ([3]; input ligand: none): 304 nM |
| AAACAUGAGGAUCACCCAUGUCGAUCAGAACUCUGAUCUGCUCAGGAUAUCCGAAUGCGCGUUUCGGAGAAGGGAGAAAUGUGA [Lareraedqu] (Eterna round: R96, puzzle: Same State NG 3) |  |  | 36.4 nM | apparent KD of MS2 coat protein ([3]; input ligand: FMN 200 uM): 69.8 nM; apparent KD of MS2 coat protein ([3]; input ligand: none): 53.2 nM |
| GCGGAACCUGACAUGAGGAUCACCCAUGUUCCGGAAACGGCACAGGAUAUCUGUCCGAAAAGGUCAGAGAAGGGUGGAAACCGC [Fiskers NG3ss - 98] (Eterna round: R96, puzzle: Same State NG 3) |  |  | 179 nM | apparent KD of MS2 coat protein ([3]; input ligand: FMN 200 uM): 68 nM; apparent KD of MS2 coat protein ([3]; input ligand: none): 193 nM |
| GGAGCAGGGUGAGGAUAUGUAAAAUUCGAAAGGACAGAAGGCACUUAACCAACAUGAGGAUCACCCAUGUAGGCGACGGCACCA [Eternabot solution 8] (Eterna round: R96, puzzle: Same State NG 1) |  |  | 19.9 nM |  |
| UCGAGCGUACUUGCAGACAUGAGGAUCACCCAUGUAAAUGGGAAGGAUAUGGUACCGUUUCGGUACCAGAAGGUCCUAAGUGAU [salish99_SSNG3_r04_302] (Eterna round: R96, puzzle: Same State NG 3) |  |  | 465 nM | apparent KD of MS2 coat protein ([3]; input ligand: FMN 200 uM): 574 nM; apparent KD of MS2 coat protein ([3]; input ligand: none): 1200 nM |
| GAGGAGGAUACAGGAUAUAUACAUGAGGAUCACACAUACAUGACAUGAGGAUCACCCAUGUUUGUAUAGAAGGGUAAGAGGAGG [Seems to be working] (Eterna round: R96, puzzle: Same State NG 2) |  |  | 24.2 nM | apparent KD of MS2 coat protein ([3]; input ligand: FMN 200 uM): 51.2 nM; apparent KD of MS2 coat protein ([3]; input ligand: none): 66.1 nM |
